Reference: PMC314469, “Protein Interaction Networks by Proteome Peptide Scanning” (PLoS Biology, 2004)

T1: Yhr016c SH3 (YSC84_YEAST), P32793
T1 chain: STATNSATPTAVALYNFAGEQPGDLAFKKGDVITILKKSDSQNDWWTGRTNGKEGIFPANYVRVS

T2: Rvs167 SH3 (RV167_YEAST), P39743
T2 chain: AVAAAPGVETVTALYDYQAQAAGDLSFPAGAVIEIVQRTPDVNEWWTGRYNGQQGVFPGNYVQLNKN

T3: Boi1 SH3 (BOI1_YEAST), P38041
T3 chain: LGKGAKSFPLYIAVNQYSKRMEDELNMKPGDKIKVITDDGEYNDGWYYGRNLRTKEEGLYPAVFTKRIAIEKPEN

T4: Boi2 SH3 (BOI2_YEAST), P39969
T4 chain: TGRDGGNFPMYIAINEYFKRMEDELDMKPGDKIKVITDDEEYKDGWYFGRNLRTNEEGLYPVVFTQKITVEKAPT

T5: Yfr024 SH3 (LSB3_YEAST), P43603
T5 chain: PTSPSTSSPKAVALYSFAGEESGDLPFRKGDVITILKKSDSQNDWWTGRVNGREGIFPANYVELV


What was measured:
Assay in all cases: SPOT array
[1] = target: T1, Yhr016c SH3 (YSC84_YEAST), P32793
[2] = target: T2, Rvs167 SH3 (RV167_YEAST), P39743
[3] = target: T3, Boi1 SH3 (BOI1_YEAST), P38041
[4] = target: T4, Boi2 SH3 (BOI2_YEAST), P39969
[5] = target: T5, Yfr024 SH3 (LSB3_YEAST), P43603

Binder | normalised SPOT signal, Boehringer light units (BLU); mean over the file's lines of this peptide [1] | normalised SPOT signal, Boehringer light units (BLU); mean over the file's lines of this peptide [2] | normalised SPOT signal, Boehringer light units (BLU); mean over the file's lines of this peptide [3] | normalised SPOT signal, Boehringer light units (BLU); mean over the file's lines of this peptide [4] | normalised SPOT signal, Boehringer light units (BLU); mean over the file's lines of this peptide [5]
GVPPNFPQRMMPPP [YKL204W 471-484] | 283 | 58.8 | 58.2 | 84.6 | 1870
HGLPYKPSKLIRIF [YLR224W 329-342] | 222 | 67.7 | 80.3 | 60.3 | 747
HSTPVTPRRLFTSQ [YGL003C 171-184] | 6510 | 282 | 2290 | 77.8 | 16700
HGVPVVPSREVTIN [YER014W 440-453] | 765 | 82 | 140 | 33.6 | 555
HLDPEAPDKLLENS [YOR301W 109-122] | 329 | 29.1 | 161 | 62.5 | 35.4
GYDPTDPSRPRINE [YDR093W 1469-1482] | 257 | 71.5 | 98.5 | 34.7 | -0
HEHPSGPLKKLFSD [YIL002C 144-157] | -0 | 13.3 | 1.6 | -0 | 167
HSEPAIPYRETFLS [YNL163C 746-759] | 634 | 35.1 | 83.3 | 14.6 | 92.9
GVFPNSPVKQTTII [YPL023C 580-593] | 116 | 4 | 64.4 | 97.9 | 269
HPDPADPAKELELN [YDR037W 377-390] | 161 | 50 | 72 | 12.4 | -0
GYDPTDPNRPKVTK [YER166W 1426-1439] | 69.3 | 35.5 | 108 | 52.4 | 54.7
HTPPLNPSKKSASI [YOR371C 699-712] | 90.5 | 28.1 | 107 | 82.2 | 15.3
IAAPKKPRKPRQTK [YGL025C 241-254] | 126 | 95.9 | 49.7 | 53.7 | 3170
GVYPSRPEKTYDYS [YBR026C 71-84] | 113 | 12.9 | 111 | 47.3 | 470

Second part, the binder after the results:

normalised SPOT signal, Boehringer light units (BLU); mean over the file's lines of this peptide [1] | normalised SPOT signal, Boehringer light units (BLU); mean over the file's lines of this peptide [2] | normalised SPOT signal, Boehringer light units (BLU); mean over the file's lines of this peptide [3] | normalised SPOT signal, Boehringer light units (BLU); mean over the file's lines of this peptide [4] | normalised SPOT signal, Boehringer light units (BLU); mean over the file's lines of this peptide [5] | Binder
1630 | 1900 | 61 | 15.5 | 6510 | HLPPPPPPRAQQQQ [YOR329C 664-677]
493 | 50.3 | 69.6 | 18.6 | 223 | GSSPVSPDKRPSWK [YGL156W 66-79]
244 | 87.3 | 157 | 33.8 | 155 | HNSPVAPNRYAANL [YBR038W 84-97]
161 | 60.7 | 9.8 | 61 | 1710 | HRGPRRPQKNRYNT [YMR280C 1394-1407]
2770 | 197 | 97.3 | 36 | 5740 | GTPPTTPLRTAQGI [YOR025W 379-392]
142 | 561 | 673 | 170 | 1350 | HSSPIAPSKAKRQR [YCR065W 64-77]
407 | 286 | 59.3 | 236 | 12000 | GWKPLRPIKLISWD [YJR126C 478-491]
216 | 16 | 86.7 | 18.8 | 572 | HQIPSAPQRLVSII [YMR136W 114-127]
